In paper PMC10979024 (Nature Communications, 2024):

Key:
[1] = target: T1, DvCODH (Nitratidesulfovibrio vulgaris, UniProt Q72A99); type: biochemical; conditions: CO-saturated 50 mM HEPES/NaOH pH 8, 2 mM DTE, 20 mM viologen, 30 °C
T1 construct: gene cooS

[2] = target: the molecule itself; assay: SEC; size exclusion chromatography of the purified enzyme; measured molecular mass compared with the theoretical mass of the dimer

T1 sequence (Q72A99 1-629): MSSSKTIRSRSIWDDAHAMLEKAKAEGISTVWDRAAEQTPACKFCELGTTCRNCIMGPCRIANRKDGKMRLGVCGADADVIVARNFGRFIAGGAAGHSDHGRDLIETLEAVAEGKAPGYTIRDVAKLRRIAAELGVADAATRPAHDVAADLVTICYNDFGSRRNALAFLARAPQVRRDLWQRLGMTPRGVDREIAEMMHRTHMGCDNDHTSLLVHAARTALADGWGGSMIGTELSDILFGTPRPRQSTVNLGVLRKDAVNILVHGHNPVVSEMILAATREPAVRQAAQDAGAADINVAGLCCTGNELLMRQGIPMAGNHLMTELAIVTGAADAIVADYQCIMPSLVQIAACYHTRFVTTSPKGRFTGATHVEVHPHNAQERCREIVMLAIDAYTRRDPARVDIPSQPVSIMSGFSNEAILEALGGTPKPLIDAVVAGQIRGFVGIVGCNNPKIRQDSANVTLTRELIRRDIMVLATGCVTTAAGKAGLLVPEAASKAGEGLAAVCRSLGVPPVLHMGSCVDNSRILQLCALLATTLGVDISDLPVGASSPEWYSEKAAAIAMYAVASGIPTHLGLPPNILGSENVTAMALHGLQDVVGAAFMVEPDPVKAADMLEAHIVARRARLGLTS

For `C[n+]1ccc(-c2cc[n+](C)cc2)cc1` [MV, methyl viologen], the “CO-dependent viologen reduction, relative activity” value [1] was “essential for viologen reduction using the four mediators MV, EV, BV, and diquat (DQ)”.

B1: ChCODH2 F41A (enzyme, Carboxydothermus hydrogenoformans)
chain: MAKQNLKSTDRAVQQMLDKAKREGIQTVWDRYEAMKPQCGAGETGLCCRHCLQGPCRINPFGDEPKVGICGATAEVIVARGLDRSIAAGAAGHSGHAKHLAHTLKKAVQGKAASYMIKDRTKLHSIAKRLGIPTEGQKDEDIALEVAKAALADFHEKDTPVLWVTTVLPPSRVKVLSAHGLIPAGIDHEIAEIMHRTSMGCDADAQNLLLGGLRCSLADLAGCYMGTDLADILFGTPAPVVTESNLGVLKADAVNVAVHGHNPVLSDIIVSVSKEMENEARAAGATGINVVGICCTGNEVLMRHGIPACTHSVSQEMAMITGALDAMILDYQCIQPSVATIAECTGTTVITTMEMSKITGATHVNFAEEAAVENAKQILRLAIDTFKRRKGKPVEIPNIKTKVVAGFSTEAIINALSKLNANDPLKPLIDNVVNGNIRGVCLFAGCNNVKVPQDQNFTTIARKLLKQNVLVVATGCGAGALMRHGFMDPANVDELCGDGLKAVLTAIGEANGLGGPLPPVLHMGSCVDNSRAVALVAALANRLGVDLDRLPVVASAAEAMHEKAVAIGTWAVTIGLPTHIGVLPPITGSLPVTQILTSSVKDITGGYFIVELDPETAADKLLAAINERRAGLGLPW
notes: Ni-Fe carbon monoxide dehydrogenase 2 (ChCODH2), Carboxydothermus hydrogenoformans, locus Chy_0085; site-directed variant in pET28a; source: E. coli BL21(DE3) with pRKISC, purified (Ni-NTA; size-exclusion chromatography)
With B1 the “stoichiometry N” value [2] was 2.

B2: ChCODH2 wild type (carbon monoxide dehydrogenase 2 of Carboxydothermus hydrogenoformans) (enzyme)
chain: MAKQNLKSTDRAVQQMLDKAKREGIQTVWDRYEAMKPQCGFGETGLCCRHCLQGPCRINPFGDEPKVGICGATAEVIVARGLDRSIAAGAAGHSGHAKHLAHTLKKAVQGKAASYMIKDRTKLHSIAKRLGIPTEGQKDEDIALEVAKAALADFHEKDTPVLWVTTVLPPSRVKVLSAHGLIPAGIDHEIAEIMHRTSMGCDADAQNLLLGGLRCSLADLAGCYMGTDLADILFGTPAPVVTESNLGVLKADAVNVAVHGHNPVLSDIIVSVSKEMENEARAAGATGINVVGICCTGNEVLMRHGIPACTHSVSQEMAMITGALDAMILDYQCIQPSVATIAECTGTTVITTMEMSKITGATHVNFAEEAAVENAKQILRLAIDTFKRRKGKPVEIPNIKTKVVAGFSTEAIINALSKLNANDPLKPLIDNVVNGNIRGVCLFAGCNNVKVPQDQNFTTIARKLLKQNVLVVATGCGAGALMRHGFMDPANVDELCGDGLKAVLTAIGEANGLGGPLPPVLHMGSCVDNSRAVALVAALANRLGVDLDRLPVVASAAEAMHEKAVAIGTWAVTIGLPTHIGVLPPITGSLPVTQILTSSVKDITGGYFIVELDPETAADKLLAAINERRAGLGLPW
notes: Ni-Fe carbon monoxide dehydrogenase 2 (ChCODH2), Carboxydothermus hydrogenoformans, locus Chy_0085; synthesized DNA in pET28a; Carries Fe-S and Ni-Fe clusters (B, C, D); also called ChCODH2 WT; WT; source: E. coli BL21(DE3) with pRKISC, purified (Ni-NTA; size-exclusion chromatography)
B2: binds [2].
